Results taken from US20140271602, “NUCLEOTIDE-SPECIFIC RECOGNITION SEQUENCES FOR DESIGNER TAL EFFECTORS” (THE BROAD INSTITUTE INC., published 2014).

Key:
TALE1-NH repressor = target: T1, TALE1-NH repressor (Xanthomonas (engineered), UniProt P14727 SEQ:1-983); assay: cell_activity; endogenous CACNA1C mRNA; conditions: tags: SID
T1 chain: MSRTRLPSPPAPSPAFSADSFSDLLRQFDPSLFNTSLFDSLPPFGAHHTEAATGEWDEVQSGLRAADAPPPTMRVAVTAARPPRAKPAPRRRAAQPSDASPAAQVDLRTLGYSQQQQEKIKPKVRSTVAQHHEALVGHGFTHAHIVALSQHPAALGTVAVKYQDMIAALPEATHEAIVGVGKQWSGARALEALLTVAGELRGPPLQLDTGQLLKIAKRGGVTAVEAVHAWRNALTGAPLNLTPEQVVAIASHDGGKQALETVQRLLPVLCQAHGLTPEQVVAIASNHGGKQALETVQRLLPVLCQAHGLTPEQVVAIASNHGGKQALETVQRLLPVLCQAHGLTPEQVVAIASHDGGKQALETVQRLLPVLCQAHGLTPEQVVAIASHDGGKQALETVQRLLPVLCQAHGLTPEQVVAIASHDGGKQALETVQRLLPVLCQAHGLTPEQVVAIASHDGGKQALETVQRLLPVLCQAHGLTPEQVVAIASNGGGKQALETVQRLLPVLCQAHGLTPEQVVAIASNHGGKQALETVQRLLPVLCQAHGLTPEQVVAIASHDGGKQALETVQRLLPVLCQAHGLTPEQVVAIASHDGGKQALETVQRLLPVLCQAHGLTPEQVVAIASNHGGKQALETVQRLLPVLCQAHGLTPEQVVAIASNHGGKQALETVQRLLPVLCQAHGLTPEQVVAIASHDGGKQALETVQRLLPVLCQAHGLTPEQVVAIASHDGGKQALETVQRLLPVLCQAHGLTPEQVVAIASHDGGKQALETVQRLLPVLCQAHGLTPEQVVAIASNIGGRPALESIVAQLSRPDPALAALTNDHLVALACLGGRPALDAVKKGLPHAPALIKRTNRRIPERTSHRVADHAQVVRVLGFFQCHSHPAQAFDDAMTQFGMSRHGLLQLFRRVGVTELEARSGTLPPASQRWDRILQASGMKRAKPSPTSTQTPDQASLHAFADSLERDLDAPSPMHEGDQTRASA

[1] = target: T2, TALE1-NH (CACNA1C site 1 activator) (Xanthomonas (engineered), UniProt P14727 SEQ:1-983); assay: cell_activity; HEK 293FT, endogenous CACNA1C mRNA; reporter 1.9x that of NK; conditions: tags: VP64, 2A-GFP
T2 chain: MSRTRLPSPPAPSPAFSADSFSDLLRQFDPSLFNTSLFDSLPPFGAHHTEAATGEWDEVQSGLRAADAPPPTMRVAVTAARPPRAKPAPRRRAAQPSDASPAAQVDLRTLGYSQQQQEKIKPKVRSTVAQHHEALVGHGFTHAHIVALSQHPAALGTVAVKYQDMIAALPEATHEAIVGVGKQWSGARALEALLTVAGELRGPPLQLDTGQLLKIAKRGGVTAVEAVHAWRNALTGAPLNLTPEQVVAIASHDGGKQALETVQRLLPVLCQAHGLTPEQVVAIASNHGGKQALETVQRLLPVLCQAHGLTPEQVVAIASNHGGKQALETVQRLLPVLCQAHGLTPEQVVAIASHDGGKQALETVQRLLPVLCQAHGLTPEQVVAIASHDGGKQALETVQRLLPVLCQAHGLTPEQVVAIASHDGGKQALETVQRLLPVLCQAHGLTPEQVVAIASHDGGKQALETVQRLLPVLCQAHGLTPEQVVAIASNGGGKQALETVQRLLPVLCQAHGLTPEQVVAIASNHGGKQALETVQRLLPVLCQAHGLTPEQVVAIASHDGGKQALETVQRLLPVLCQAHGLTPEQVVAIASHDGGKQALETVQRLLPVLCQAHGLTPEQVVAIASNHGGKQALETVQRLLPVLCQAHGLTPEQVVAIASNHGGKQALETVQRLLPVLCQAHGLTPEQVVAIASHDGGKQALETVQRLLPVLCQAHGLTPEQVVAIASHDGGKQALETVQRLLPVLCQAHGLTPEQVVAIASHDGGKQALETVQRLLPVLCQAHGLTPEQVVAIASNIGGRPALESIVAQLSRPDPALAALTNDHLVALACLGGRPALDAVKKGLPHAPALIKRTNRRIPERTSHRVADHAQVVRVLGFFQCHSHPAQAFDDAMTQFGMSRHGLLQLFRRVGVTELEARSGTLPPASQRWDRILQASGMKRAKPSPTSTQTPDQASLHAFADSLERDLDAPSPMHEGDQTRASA

B1: CACNA1C site 1 (dsDNA)
DNA 1: TCGGCCCCTGCCGGCCCA
DNA 2: TGGGCCGGCAGGGGCCGA
activity (TALE1-NH repressor): ~4 fold repression | activity [1]: ~5 fold activation
